According to paper doi:10.1101/2021.05.23.445342:
Several values for one entry are separate records, joined by “and”; a condition that tells them apart may be missing. Equal entries are not always repeated.

How the values were obtained:
[1] = molecular target: Biotin-Cys-AKAP5c (human) (UniProt P24588); test: SPR
[2] = molecular target: Biotin-Cys-AKAP5c_(ILVF->SA) (human) (UniProt P24588); test: SPR
[3] = molecular target: Calcineurin (human PPP3CA / PPP3R1 heterodimer) (human) (UniProt Q08209); test: AUC

Calcineurin (human PPP3CA / PPP3R1 heterodimer) (from UniProt Q08209 1-521; P63098 1-170) (complex)
Kd of a further surface site class [1]: 1000 to 10000 nM | Kd of surface site class 1 (one or possibly two very similar sites) [1]: 10 to 100 nM | Kd of the one main surface site class [2]: 100 nM and 1000 nM | Kd [3]: 100000 nM | percent heterotetramer [3]: 8%
